These results are taken from US20210032299A1 (Eli Lilly, published 2021).

Assay in all cases: cell-based or functional assay
In assay [1] the target is human glucagon receptor (human, UniProt P47871 26-477).
Assay [2] deals with human GLP-1 receptor (human, UniProt P43220 24-463).
For assay [3], the target named is T1, human glucose-dependent insulinotropic peptide receptor (human, UniProt P48546 22-466).
T1 sequence (looked up): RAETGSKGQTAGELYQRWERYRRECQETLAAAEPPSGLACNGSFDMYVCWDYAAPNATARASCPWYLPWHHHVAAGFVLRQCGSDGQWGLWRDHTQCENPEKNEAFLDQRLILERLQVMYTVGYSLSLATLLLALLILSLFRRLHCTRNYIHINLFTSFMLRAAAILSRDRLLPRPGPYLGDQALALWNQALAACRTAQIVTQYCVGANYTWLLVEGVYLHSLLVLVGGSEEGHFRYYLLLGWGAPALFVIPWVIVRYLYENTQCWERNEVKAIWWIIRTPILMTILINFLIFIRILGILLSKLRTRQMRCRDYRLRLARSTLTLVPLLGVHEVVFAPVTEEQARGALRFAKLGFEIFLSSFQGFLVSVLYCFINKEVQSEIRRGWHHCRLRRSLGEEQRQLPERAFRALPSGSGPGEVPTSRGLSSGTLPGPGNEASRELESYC

Starred links: 1 amine or outer side, 2 acyl side, 3 side chain; linkers in the order of their positions; H or OH if unused. Non-standard residues stand in square brackets, D forms with d. Groups on a side chain read outwards from the residue. No end group written: not given here. *: point of attachment. C20 diacid = O=C(O)CCCCCCCCCCCCCCCCCCC(=O)*; αMePhe(2-F) = C[C@](N)(Cc1ccccc1F)C(=O)O; γGlu = O=C(O)[C@H](CCC(=O)[*:2])N[*:1]; 4Pal = N[C@@H](Cc1ccncc1)C(=O)O; AEEA = NCCOCCOCC(=O)O; Aib = CC(C)(N)C(=O)O

human glucagon receptor, sequence (P47871 26-477): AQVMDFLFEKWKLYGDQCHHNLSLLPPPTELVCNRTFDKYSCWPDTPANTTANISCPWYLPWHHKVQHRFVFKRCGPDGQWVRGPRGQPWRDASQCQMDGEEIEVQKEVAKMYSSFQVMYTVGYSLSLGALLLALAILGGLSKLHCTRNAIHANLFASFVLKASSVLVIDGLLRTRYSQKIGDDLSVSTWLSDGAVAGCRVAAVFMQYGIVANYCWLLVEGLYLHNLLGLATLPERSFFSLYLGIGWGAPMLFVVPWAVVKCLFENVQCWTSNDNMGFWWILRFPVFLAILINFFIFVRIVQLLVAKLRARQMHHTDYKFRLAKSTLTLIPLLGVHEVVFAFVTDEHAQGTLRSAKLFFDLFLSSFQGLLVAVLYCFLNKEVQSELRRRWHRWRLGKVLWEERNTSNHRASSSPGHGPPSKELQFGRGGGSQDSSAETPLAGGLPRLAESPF

B1: Example 38 (peptide)
peptide: Y[Aib]EGT[αMePhe(2-F)]ISDYSIALDKK([AEEA-AEEA-γGlu-C20 diacid])HQ[Aib]DFVE[4Pal]LLETGPSSGAPPPS-NH2
modifications: N-terminus assumed
SMILES: CC[C@H](C)[C@H](NC(=O)[C@H](CO)NC(=O)[C@H](Cc1ccc(O)cc1)NC(=O)[C@H](CC(=O)O)NC(=O)[C@H](CO)NC(=O)[C@@H](NC(=O)[C@](C)(Cc1ccccc1F)NC(=O)[C@@H](NC(=O)CNC(=O)[C@H](CCC(=O)O)NC(=O)C(C)(C)NC(=O)[C@@H](N)Cc1ccc(O)cc1)[C@@H](C)O)[C@@H](C)CC)C(=O)N[C@@H](C)C(=O)N[C@@H](CC(C)C)C(=O)N[C@@H](CC(=O)O)C(=O)N[C@@H](CCCCN)C(=O)N[C@@H](CCCCNC(=O)COCCOCCNC(=O)COCCOCCNC(=O)CC[C@H](NC(=O)CCCCCCCCCCCCCCCCCCC(=O)O)C(=O)O)C(=O)N[C@@H](Cc1c[nH]cn1)C(=O)N[C@@H](CCC(N)=O)C(=O)NC(C)(C)C(=O)N[C@@H](CC(=O)O)C(=O)N[C@@H](Cc1ccccc1)C(=O)N[C@H](C(=O)N[C@@H](CCC(=O)O)C(=O)N[C@@H](Cc1ccncc1)C(=O)N[C@@H](CC(C)C)C(=O)N[C@@H](CC(C)C)C(=O)N[C@@H](CCC(=O)O)C(=O)N[C@H](C(=O)NCC(=O)N1CCC[C@H]1C(=O)N[C@@H](CO)C(=O)N[C@@H](CO)C(=O)NCC(=O)N[C@@H](C)C(=O)N1CCC[C@H]1C(=O)N1CCC[C@H]1C(=O)N1CCC[C@H]1C(=O)N[C@@H](CO)C(N)=O)[C@@H](C)O)C(C)C
Consider B1, for which the “hGcgR cAMP Rel EC50” value in assay [1] was greater than 5000 nM. In assay [2], the “hGLP1R cAMP Rel EC50” value is 1390 nM. Further, the “hGIPR cAMP Rel EC50” value in assay [3] came to 0.0368 nM.

B2: Example 39 (peptide)
peptide: Y[Aib]EGT[αMePhe(2-F)]ISDYSIALDKK([AEEA-AEEA-γGlu-C20 diacid])HQ[Aib]DFVE[4Pal]LLEGGPSSGAPPPS-NH2
modifications: N-terminus assumed
SMILES: CC[C@H](C)[C@H](NC(=O)[C@H](CO)NC(=O)[C@H](Cc1ccc(O)cc1)NC(=O)[C@H](CC(=O)O)NC(=O)[C@H](CO)NC(=O)[C@@H](NC(=O)[C@](C)(Cc1ccccc1F)NC(=O)[C@@H](NC(=O)CNC(=O)[C@H](CCC(=O)O)NC(=O)C(C)(C)NC(=O)[C@@H](N)Cc1ccc(O)cc1)[C@@H](C)O)[C@@H](C)CC)C(=O)N[C@@H](C)C(=O)N[C@@H](CC(C)C)C(=O)N[C@@H](CC(=O)O)C(=O)N[C@@H](CCCCN)C(=O)N[C@@H](CCCCNC(=O)COCCOCCNC(=O)COCCOCCNC(=O)CC[C@H](NC(=O)CCCCCCCCCCCCCCCCCCC(=O)O)C(=O)O)C(=O)N[C@@H](Cc1c[nH]cn1)C(=O)N[C@@H](CCC(N)=O)C(=O)NC(C)(C)C(=O)N[C@@H](CC(=O)O)C(=O)N[C@@H](Cc1ccccc1)C(=O)N[C@H](C(=O)N[C@@H](CCC(=O)O)C(=O)N[C@@H](Cc1ccncc1)C(=O)N[C@@H](CC(C)C)C(=O)N[C@@H](CC(C)C)C(=O)N[C@@H](CCC(=O)O)C(=O)NCC(=O)NCC(=O)N1CCC[C@H]1C(=O)N[C@@H](CO)C(=O)N[C@@H](CO)C(=O)NCC(=O)N[C@@H](C)C(=O)N1CCC[C@H]1C(=O)N1CCC[C@H]1C(=O)N1CCC[C@H]1C(=O)N[C@@H](CO)C(N)=O)C(C)C
Consider B2, for which the “hGcgR cAMP Rel EC50” value in assay [1] is greater than 5000 nM. The “hGLP1R cAMP Rel EC50” value in assay [2] was found to be 3330 nM. The “hGIPR cAMP Rel EC50” value in assay [3] is 0.0112 nM.

B3: Example 40 (peptide)
peptide: Y[Aib]EGT[αMePhe(2-F)]ISDYSIALDKK([AEEA-AEEA-γGlu-C20 diacid])HQ[Aib]DFVEWLLETGPSSGAPPPS-NH2
modifications: N-terminus assumed
SMILES: CC[C@H](C)[C@H](NC(=O)[C@H](CO)NC(=O)[C@H](Cc1ccc(O)cc1)NC(=O)[C@H](CC(=O)O)NC(=O)[C@H](CO)NC(=O)[C@@H](NC(=O)[C@](C)(Cc1ccccc1F)NC(=O)[C@@H](NC(=O)CNC(=O)[C@H](CCC(=O)O)NC(=O)C(C)(C)NC(=O)[C@@H](N)Cc1ccc(O)cc1)[C@@H](C)O)[C@@H](C)CC)C(=O)N[C@@H](C)C(=O)N[C@@H](CC(C)C)C(=O)N[C@@H](CC(=O)O)C(=O)N[C@@H](CCCCN)C(=O)N[C@@H](CCCCNC(=O)COCCOCCNC(=O)COCCOCCNC(=O)CC[C@H](NC(=O)CCCCCCCCCCCCCCCCCCC(=O)O)C(=O)O)C(=O)N[C@@H](Cc1c[nH]cn1)C(=O)N[C@@H](CCC(N)=O)C(=O)NC(C)(C)C(=O)N[C@@H](CC(=O)O)C(=O)N[C@@H](Cc1ccccc1)C(=O)N[C@H](C(=O)N[C@@H](CCC(=O)O)C(=O)N[C@@H](Cc1c[nH]c2ccccc12)C(=O)N[C@@H](CC(C)C)C(=O)N[C@@H](CC(C)C)C(=O)N[C@@H](CCC(=O)O)C(=O)N[C@H](C(=O)NCC(=O)N1CCC[C@H]1C(=O)N[C@@H](CO)C(=O)N[C@@H](CO)C(=O)NCC(=O)N[C@@H](C)C(=O)N1CCC[C@H]1C(=O)N1CCC[C@H]1C(=O)N1CCC[C@H]1C(=O)N[C@@H](CO)C(N)=O)[C@@H](C)O)C(C)C
Turning to B3, the “hGcgR cAMP Rel EC50” value in assay [1] was greater than 5000 nM. Moreover, the “hGLP1R cAMP Rel EC50” value in assay [2] turned out to be 2330 nM. In addition, the “hGIPR cAMP Rel EC50” value in assay [3] was determined as 0.033 nM.

B4: Example 36 (peptide)
peptide: Y[Aib]EGT[αMePhe(2-F)]ISDYSIALDKK([AEEA-AEEA-γGlu-C20 diacid])HQ[Aib]DFVEYLLETGPSSGAPPPS-NH2
modifications: N-terminus assumed
SMILES: CC[C@H](C)[C@H](NC(=O)[C@H](CO)NC(=O)[C@H](Cc1ccc(O)cc1)NC(=O)[C@H](CC(=O)O)NC(=O)[C@H](CO)NC(=O)[C@@H](NC(=O)[C@](C)(Cc1ccccc1F)NC(=O)[C@@H](NC(=O)CNC(=O)[C@H](CCC(=O)O)NC(=O)C(C)(C)NC(=O)[C@@H](N)Cc1ccc(O)cc1)[C@@H](C)O)[C@@H](C)CC)C(=O)N[C@@H](C)C(=O)N[C@@H](CC(C)C)C(=O)N[C@@H](CC(=O)O)C(=O)N[C@@H](CCCCN)C(=O)N[C@@H](CCCCNC(=O)COCCOCCNC(=O)COCCOCCNC(=O)CC[C@H](NC(=O)CCCCCCCCCCCCCCCCCCC(=O)O)C(=O)O)C(=O)N[C@@H](Cc1c[nH]cn1)C(=O)N[C@@H](CCC(N)=O)C(=O)NC(C)(C)C(=O)N[C@@H](CC(=O)O)C(=O)N[C@@H](Cc1ccccc1)C(=O)N[C@H](C(=O)N[C@@H](CCC(=O)O)C(=O)N[C@@H](Cc1ccc(O)cc1)C(=O)N[C@@H](CC(C)C)C(=O)N[C@@H](CC(C)C)C(=O)N[C@@H](CCC(=O)O)C(=O)N[C@H](C(=O)NCC(=O)N1CCC[C@H]1C(=O)N[C@@H](CO)C(=O)N[C@@H](CO)C(=O)NCC(=O)N[C@@H](C)C(=O)N1CCC[C@H]1C(=O)N1CCC[C@H]1C(=O)N1CCC[C@H]1C(=O)N[C@@H](CO)C(N)=O)[C@@H](C)O)C(C)C
On to B4, for which the “hGcgR cAMP Rel EC50” value in assay [1] was greater than 5000 nM. For the same molecule, the “hGLP1R cAMP Rel EC50” value in assay [2] amounted to 1080 nM. The “hGIPR cAMP Rel EC50” value in assay [3] was 0.0543 nM.

B5: Example 37 (peptide)
peptide: Y[Aib]EGT[αMePhe(2-F)]ISDYSIALDKK([AEEA-AEEA-γGlu-C20 diacid])HQ[Aib]DFVEYLLEGGPSSGAPPPS-NH2
modifications: N-terminus assumed
SMILES: CC[C@H](C)[C@H](NC(=O)[C@H](CO)NC(=O)[C@H](Cc1ccc(O)cc1)NC(=O)[C@H](CC(=O)O)NC(=O)[C@H](CO)NC(=O)[C@@H](NC(=O)[C@](C)(Cc1ccccc1F)NC(=O)[C@@H](NC(=O)CNC(=O)[C@H](CCC(=O)O)NC(=O)C(C)(C)NC(=O)[C@@H](N)Cc1ccc(O)cc1)[C@@H](C)O)[C@@H](C)CC)C(=O)N[C@@H](C)C(=O)N[C@@H](CC(C)C)C(=O)N[C@@H](CC(=O)O)C(=O)N[C@@H](CCCCN)C(=O)N[C@@H](CCCCNC(=O)COCCOCCNC(=O)COCCOCCNC(=O)CC[C@H](NC(=O)CCCCCCCCCCCCCCCCCCC(=O)O)C(=O)O)C(=O)N[C@@H](Cc1c[nH]cn1)C(=O)N[C@@H](CCC(N)=O)C(=O)NC(C)(C)C(=O)N[C@@H](CC(=O)O)C(=O)N[C@@H](Cc1ccccc1)C(=O)N[C@H](C(=O)N[C@@H](CCC(=O)O)C(=O)N[C@@H](Cc1ccc(O)cc1)C(=O)N[C@@H](CC(C)C)C(=O)N[C@@H](CC(C)C)C(=O)N[C@@H](CCC(=O)O)C(=O)NCC(=O)NCC(=O)N1CCC[C@H]1C(=O)N[C@@H](CO)C(=O)N[C@@H](CO)C(=O)NCC(=O)N[C@@H](C)C(=O)N1CCC[C@H]1C(=O)N1CCC[C@H]1C(=O)N1CCC[C@H]1C(=O)N[C@@H](CO)C(N)=O)C(C)C
Regarding B5, the “hGcgR cAMP Rel EC50” value in assay [1] is greater than 5000 nM. Moreover, the “hGLP1R cAMP Rel EC50” value in assay [2] was determined as 61.1 nM. The “hGIPR cAMP Rel EC50” value in assay [3] amounted to 0.036 nM.
